Source: article PMC3463842 (The EMBO Journal, 2012)
Residue numbers refer to the chain shown, from its start. Names and notes keep the numbering of the source.

Target: ubiquitin^TAMRA (C-terminal TAMRA-labelled ubiquitin) (UniProt P0CG48 1-76, TAMRA label at the C-terminus)
Experiment: fluorescence polarisation

B1: HOIP^RBR-LDD (699–1072), as used in the FP assay (domain or fragment)
chain: CAVCGWALPHNRMQALTSCECTICPDCFRQHFTIALKEKHITDMVCPACGRPDLTDDTQLLSYFSTLDIQLRESLEPDAYALFHKKLTEGVLMRDPKFLWCAQCSFGFIYEREQLEATCPQCHQTFCVRCKRQWEEQHRGRSCEDFQNWKRMNDPEYQAQGLAMYLQENGIDCPKCKFSYALARGGCMHFHCTQCRHQFCSGCYNAFYAKNKCPEPNCRVKKSLHGHHPRDCLFYLRDWTALRLQKLLQDNNVMFNTEPPAGARAVPGGGCRVIEQKEVPNGLRDEACGKETPAGYAGLCQAHYKEYLVSLINAHSLDPATLYEVEELETATERYLHVRPQPLAGEDPPAYQARLLQKLTEEVPLGQSIPRRRK
B1 was tested. Which Kd did it give?
Its Kd is 118 µM.

B2: HOIP^RBR-LDD C930A (domain or fragment)
chain: B1 chain with C232A
B2 was tested. Which Kd did it give?
Its Kd is 83 µM.
